Values quoted from earlier work, collected in publication PMC3669279.
Read-outs that look alike come from different tables or passages of the source.

Tests used:
[1] = biological target: protective antigen (PA) (Bacillus anthracis) (UniProt P13423)
[2] = biological target: protective antigen (PA) (Bacillus anthracis) (UniProt P13423); remark: listed apart in the source

**Q.** Which Kd [1] does the source give for “lethal factor (LF) (from UniProt P15917)” here?
**A.** 1 nM

**Q.** Which Kd [2] does the source give for edema factor (EF) (from UniProt P40136) here?
**A.** 1 nM
